Test results as given in PMC10545747 (2023).

Tests used:
XQ2 [1] = target: T1, XQ2 (macrocyclic (cyclic) peptide); experiment: SPR
XQ2 [2] = target: T1, XQ2; experiment: MST; 2 M (NH4)2SO4

Kd (XQ2 [1]) [µM] | Kd (XQ2 [2]) [nM] | Binder
86.5 |  | N-terminally truncated human cGAS (hcGAS-ΔN, residues 147–522) (domain or fragment) PVSAPILVRRDAAPGASKLRAVLEKLKLSRDDISTAAGMVKGVVDHLLLRLKCDSAFRGVGLLNTGSYYEHVKISAPNEFDVMFKLEVPRIQLEEYSNTRAYYFVKFKRNPKENPLSQFLEGEILSASKMLSKFRKIIKEEINDIKDTDVIMKRKRGGSPAVTLLISEKISVDITLALESKSSWPASTQEGLRIQNWLSAKVRKQLRLKPFYLVPKHAKEGNGFQEETWRLSFSHIEKEILNNHGKSKTCCENKEEKCCRKDCLKLMKYLLEQLKERFKDKKHLDKFSSYHVKTAFFHVCTQNPQDSQWDRKDLGLCFDNCVTYFLQCLRTEKLENYFIPEFNLFSSNLIDKRSKEFLTKQIEYERNNEFPVFDEF
 | 1800 | fluorescent labeled hcGAS (enzyme, fluorescent label (dye and site not stated)) MQPWHGKAMQRASEAGATAPKASARNARGAPMDPTESPAAPEAALPKAGKFGPARKSGSRQKKSAPDTQERPPVRATGARAKKAPQRAQDTQPSDATSAPGAEGLEPPAAREPALSRAGSCRQRGARCSTKPRPPPGPWDVPSPGLPVSAPILVRRDAAPGASKLRAVLEKLKLSRDDISTAAGMVKGVVDHLLLRLKCDSAFRGVGLLNTGSYYEHVKISAPNEFDVMFKLEVPRIQLEEYSNTRAYYFVKFKRNPKENPLSQFLEGEILSASKMLSKFRKIIKEEINDIKDTDVIMKRKRGGSPAVTLLISEKISVDITLALESKSSWPASTQEGLRIQNWLSAKVRKQLRLKPFYLVPKHAKEGNGFQEETWRLSFSHIEKEILNNHGKSKTCCENKEEKCCRKDCLKLMKYLLEQLKERFKDKKHLDKFSSYHVKTAFFHVCTQNPQDSQWDRKDLGLCFDNCVTYFLQCLRTEKLENYFIPEFNLFSSNLIDKRSKEFLTKQIEYERNNEFPVFDEF
